Biological target: NSUN4 (Homo sapiens, UniProt Q96CB9 26-384)
Test: EMSA; NSUN4 without MTERF4; protein 0-2.56 uM; EMSA with 40 ng RNA and 0-2.56 uM protein, essentially as in cited ref 15; buffer, salt, pH and temperature not given
Settings: protein: recombinant; single strand folded, closed by added GGG/CCC

Chain of NSUN4 (Q96CB9 26-384): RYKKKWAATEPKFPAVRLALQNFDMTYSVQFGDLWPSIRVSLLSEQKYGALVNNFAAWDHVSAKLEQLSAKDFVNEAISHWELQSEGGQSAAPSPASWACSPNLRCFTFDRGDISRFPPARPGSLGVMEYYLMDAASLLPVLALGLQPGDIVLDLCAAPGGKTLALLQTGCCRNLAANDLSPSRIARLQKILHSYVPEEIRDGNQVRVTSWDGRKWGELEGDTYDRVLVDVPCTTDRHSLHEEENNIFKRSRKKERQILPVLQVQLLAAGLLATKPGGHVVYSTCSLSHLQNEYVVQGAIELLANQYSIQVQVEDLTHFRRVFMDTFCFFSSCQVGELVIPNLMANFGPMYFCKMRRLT

B1: ds12S:878-949 (structured_RNA)
RNA: GGGGUUGAACAGGGCCCUGAAGCGCGUACACACCGCCCGUCACCCUCCUCAAGUAUACUUCAAAGGACAUUUAACCCC
Question: Does B1 bind?
Answer: Result: binds

Reference: paper PMC3916286, “NSUN4 Is a Dual Function Mitochondrial Protein Required for Both Methylation of 12S rRNA and Coordination of Mitoribosomal Assembly”
